Test results as given in IntAct's records for PubMed 21216997.

What was measured:
[1] = molecular target: ftsz_ecoli ftsZ (UniProt P0A9A6)
[2] = molecular target: ftsz_ecoli ftsZ (UniProt P0A9A6); remark: listed apart in the source

Sequence of ftsz_ecoli ftsZ (P0A9A6 whole entry): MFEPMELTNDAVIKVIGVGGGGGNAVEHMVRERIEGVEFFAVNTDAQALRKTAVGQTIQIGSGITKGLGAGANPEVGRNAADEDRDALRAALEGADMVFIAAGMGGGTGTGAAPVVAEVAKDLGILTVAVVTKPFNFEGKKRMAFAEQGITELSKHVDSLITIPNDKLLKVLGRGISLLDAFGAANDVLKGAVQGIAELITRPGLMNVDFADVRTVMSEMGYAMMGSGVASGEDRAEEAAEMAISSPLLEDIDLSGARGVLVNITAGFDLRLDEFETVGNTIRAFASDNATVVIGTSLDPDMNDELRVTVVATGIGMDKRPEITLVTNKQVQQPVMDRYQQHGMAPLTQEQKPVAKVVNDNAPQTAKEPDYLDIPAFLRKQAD

- effect of a mutation on the interaction [1]: decreasing interaction strength
- effect of a mutation on the interaction [2]: disrupting interaction
Substance: Cell division protein ZapC (Escherichia coli (strain K12)), P75862 L22P
